This is an account of results in patent US20190330310A1 (VIB VZW, published 2019).

To fix the notation:
B1: ERN1-Tyk2(C)-HA (other)
chain: IFGSTSTVTLPETLLFVSTLDGSLHAVSKRTGSIKWTLKEDPVLQVPTHVEEPAFLPDPNDGSLYTLGSKNNEGLTKLPFTIPELVQASPCRSSDGILYMGKKQDIWYVIDLLTGEKQQTLSSAFADSLCPSTSLLYLGRTEYTITMYDTKTRELRWNATYFDYAASLPEDDVDYKMSHFVSNGDGLVVTVDSESGDVLWIQNYASPVVAFYVWQREGLRKVMHINVAVETLRYLTFMSGEVGRITKWKYPFPKETEAKSKLTPTLYVGKYSTSLYASPSMVHEGVAVVPRGSTLPLLEGPQTDGVTIGDKGECVITPSTDVKFDPGLKSKNKLNYLRNYWLLIGHHETPLSASTKMLERFPNNLPKHRENVIPADSEKKSFEEVINLVDQTSENAPTTVSRDVEEKPAHAPARPEAPVDSMLKDMATIILSTFLLIGWVAFIITYPLSMHQQQQLQHQQFQKELEKIQLLQQQQQQLPFHPPGDTAQDGELLDTSGPYSESSGTSSPSTSPRASNHSLCSGSSASKAGSSPSLEQDDGDEETSVVIVGKISFCPKDVLGHGAEGTIVYRGMFDNRDVAVKRILPECFSFADREVQLLRESDEHPNVIRYFCTEKDRQFQYIAIELCAATLQEYVEQKDFAHLGLEPITLLQQTTSGLAHLHSLNIVHRDLKPHNILISMPNAHGKIKAMISDFGLCKKLAVGRHSFSRRSGVPGTEGWIAPEMLSEDCKENPTYTVDIFSAGCVFYYVISEGSHPFGKSLQRQANILLGACSLDCLHPEKHEDVIARELIEKMIAMDPQKRPSAKHVLKHPFFWSLEKQLQFFQDVSDRIEKESLDGPIVKQLERGGRAVVKMDWRENITVPLQTDLRKFRTYKGGSVRDLLRAMRNKKHHYRELPAEVRETLGSLPDDFVCYFTSRFPHLLAHTYRAMELCSHERLFQPYYFHEPPEPQPPVTPDALAAAGGSITQLSHLGQGTRTNVYEGRLRVEGSGDPEEGKMDDEDPLVPGRDRGQELRVVLKVLDPSHHDIALAFYETASLMSQVSHTHLAFVHGVCVRGPENSMVTEYVEHGPLDVWLRRERGHVPMAWKMVVAQQLASALSYLENKNLVHGNVCGRNILLARLGLAEGTSPFIKLSDPGVGLGALSREERVERIPWLAPECLPGGANSLSTAMDKWGFGATLLEICFDGEAPLQSRSPSEKEHFYQRQHRLPEPSCPQLATLTSQCLTYEPTQRPSFRTILRDLTRVQPHNLADVLTVNRDSPAVGPTTFHKRYLKKIRDLGEGHFGKVSLYCYDPTNDGTGEMVAVKALKADCGPQHRSGWKQEIDILRTLYHEHIIKYKGCCEDQGEKSLQLVMEYVPLGSLRDYLPRHSIGLAQLLLFAQQICEGMAYLHAHDYIHRDLAARNVLLDNDRLVKIGDFGLAKAVPEGHEYYRVREDGDSPVFWYAPECLKEYKFYYASDVWSFGVTLYELLTHCDSSQSPPTKFLELIGIAQGQMTVLRLTELLERGERLPRPDKCPCEVYHLMKNCWETEASFRPTFENLIPILKTVHEKYQGQAPSVFSVCLEYPYDVPDYA
notes: Fusion protein expressed in transfected HEK293-T cells; also called ERN1-Tyk2-HA; ERN1-Tyk2(C) fusion construct

Assay [1] addresses T1, unfused gp130 receptor fragment (pMG1) (human, UniProt P40189 760-918).
T1 construct: Negative control prey; also called empty prey
T1 sequence: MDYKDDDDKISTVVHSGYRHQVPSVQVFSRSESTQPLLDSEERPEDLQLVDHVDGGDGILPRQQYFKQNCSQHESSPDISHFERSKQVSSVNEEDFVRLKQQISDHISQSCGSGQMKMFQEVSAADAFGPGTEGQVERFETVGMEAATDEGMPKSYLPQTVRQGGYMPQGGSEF
Briefly: luciferase reporter interaction assay in HEK293-T cells, tunicamycin 0-0.5-1-2 µg/ml. (A reporter such as luciferase makes a cellular process visible.)
Experimental: In a first experiment, cells were transfected with the following combinations of plasmids (500 ng of the kinase fusion construct, 100 ng of the gp130 fusion construct and 50 ng of the luciferase reporter construct) according to the methods described above:
After transfection, cells were treated with 0-0.5-1-2 μg/ml tunicamycin, final concentration.

In the next assay the target is T2, HA-Tyk2(C)-SERT (human).
T2 construct: Fusion protein expressed in transfected HEK293-T cells; also called pSVSport-HA-Tyk2(C)-SERT; SERT kinase fusion construct
The experiment in a line: luciferase reporter interaction assay in HEK293-T cells.

The target of a further assay is T3, HA-Tyk2(C)-RTp66 (HIV-1).
T3 construct: also called pSVSport-HA-Tyk2(C)-RTp66; RTp66 kinase fusion construct
The assay is described as above.

The next assay addresses T4, ERN1(K599A)-Tyk2(C)-HA (human).
T4 construct: also called pcDNA5/FRT/TO-ERN1(K599A)-Tyk2(C)-HA
Briefly: luciferase reporter interaction assay in HEK293-T cells, vehicle or 1 µg/ml tunicamycin.

The target in a further assay is T5, ERN1(D123P)-Tyk2(C)-HA (human).
T5 construct: Mutation in the luminal domain of ERN1; also called pcDNA5/FRT/TO-ERN1(D123P)-Tyk2(C)-HA; ERN1(D123P)-Tyk2(K)-HA
The description is as above.

The target of the assay “ERN1-Tyk2(C)-HA” is B1. Briefly: luciferase reporter interaction assay in HEK293-T cells, tunicamycin 0-0.04-0.2-1-5 µg/ml.
Experimental: After transfection, cells were treated with 0-0.04-0.2-1-5 μg/ml tunicamycin, final concentration. The luciferase data are presented as fold induction relative to the signal obtained in cells transfected with unfused gp130 (empty prey; transfection a) and treated with the same concentration tunicamycin. Expression of the different fusion proteins was confirmed using Western blot.

Experimental for ERN1(D123P)-Tyk2(C)-HA: (§1) After transfection, cells were either vehicle (DMSO) treated or treated with 1 μg/ml tunicamycin (final concentration).
Experimental for ERN1(K599A)-Tyk2(C)-HA: as §1

As for B1, the binding result in assay [1] is reported as “no binding”.

B2: flag tag-gp130-VAMP1 (other)
chain: MDYKDDDDKISTVVHSGYRHQVPSVQVFSRSESTQPLLDSEERPEDLQLVDHVDGGDGILPRQQYFKQNCSQHESSPDISHFERSKQVSSVNEEDFVRLKQQISDHISQSCGSGQMKMFQEVSAADAFGPGTEGQVERFETVGMEAATDEGMPKSYLPQTVRQGGYMPQGGSELSTSLYKKVGMSAPAQPPAEGTEGTAPGGGPPGPPPNMTSNRRLQQTQAQVEEVVDIIRVNVDKVLERDQKLSELDDRADALQAGASQFESSAAKLKRKYWWKNCKMMIMLGAICAIIVVVIVSKYRCPTFLYKVV
notes: also called pMG1-VAMP1; VAMP1 gp130 fusion construct
B2: the binding result is listed as “binds” in the assay with HA-Tyk2(C)-SERT and “no binding” in the assay with HA-Tyk2(C)-RTp66.

B3: flag tag-ERN1-gp130 (other)
chain: IFGSTSTVTLPETLLFVSTLDGSLHAVSKRTGSIKWTLKEDPVLQVPTHVEEPAFLPDPNDGSLYTLGSKNNEGLTKLPFTIPELVQASPCRSSDGILYMGKKQDIWYVIDLLTGEKQQTLSSAFADSLCPSTSLLYLGRTEYTITMYDTKTRELRWNATYFDYAASLPEDDVDYKMSHFVSNGDGLVVTVDSESGDVLWIQNYASPVVAFYVWQREGLRKVMHINVAVETLRYLTFMSGEVGRITKWKYPFPKETEAKSKLTPTLYVGKYSTSLYASPSMVHEGVAVVPRGSTLPLLEGPQTDGVTIGDKGECVITPSTDVKFDPGLKSKNKLNYLRNYWLLIGHHETPLSASTKMLERFPNNLPKHRENVIPADSEKKSFEEVINLVDQTSENAPTTVSRDVEEKPAHAPARPEAPVDSMLKDMATIILSTFLLIGWVAFIITYPLSMHQQQQLQHQQFQKELEKIQLLQQQQQQLPFHPPGDTAQDGELLDTSGPYSESSGTSSPSTSPRASNHSLCSGSSASKAGSSPSLEQDDGDEETSVVIVGKISFCPKDVLGHGAEGTIVYRGMFDNRDVAVKRILPECFSFADREVQLLRESDEHPNVIRYFCTEKDRQFQYIAIELCAATLQEYVEQKDFAHLGLEPITLLQQTTSGLAHLHSLNIVHRDLKPHNILISMPNAHGKIKAMISDFGLCKKLAVGRHSFSRRSGVPGTEGWIAPEMLSEDCKENPTYTVDIFSAGCVFYYVISEGSHPFGKSLQRQANILLGACSLDCLHPEKHEDVIARELIEKMIAMDPQKRPSAKHVLKHPFFWSLEKQLQFFQDVSDRIEKESLDGPIVKQLERGGRAVVKMDWRENITVPLQTDLRKFRTYKGGSVRDLLRAMRNKKHHYRELPAEVRETLGSLPDDFVCYFTSRFPHLLAHTYRAMELCSHERLFQPYYFHEPPEPQPPVTPDALSRGSGGSGGSTVVHSGYRHQVPSVQVFSRSESTQPLLDSEERPEDLQLVDHVDGGDGILPRQQYFKQNCSQHESSPDISHFERSKQVSSVNEEDFVRLKQQISDHISQSCGSGQMKMFQEVSAADAFGPGTEGQVERFETVGMEAATDEGMPKSYLPQTVRQGGYMPQGGSELSTSLYKKAGYLPQTVRQGGYMPQ
notes: Fusion protein expressed in transfected HEK293-T cells; also called ERN1-gp130 fusion construct; pMG2C-ERN1
Turning to B3, the binding result with ERN1(K599A)-Tyk2(C)-HA and in the assay with ERN1(D123P)-Tyk2(C)-HA was “no binding” in each case.

B4: flag-tag-ERN1cyt-gp130 (other)
chain: MDYKDDDDKISEFFCPKDVLGHGAEGTIVYRGMFDNRDVAVKRILPECFSFADREVQLLRESDEHPNVIRYFCTEKDRQFQYIAIELCAATLQEYVEQKDFAHLGLEPITLLQQTTSGLAHLHSLNIVHRDLKPHNILISMPNAHGKIKAMISDFGLCKKLAVGRHSFSRRSGVPGTEGWIAPEMLSEDCKENPTYTVDIFSAGCVFYYVISEGSHPFGKSLQRQANILLGACSLDCLHPEKHEDVIARELIEKMIAMDPQKRPSAKHVLKHPFFWSLEKQLQFFQDVSDRIEKESLDGPIVKQLERGGRAVVKMDWRENITVPLQTDLRKFRTYKGGSVRDLLRAMRNKKHHYRELPAEVRETLGSLPDDFVCYFTSRFPHLLAHTYRAMELCSHERLFQPYYFHEPPEPQPPVTPDALPSRGSGGSGGSTVVHSGYRHQVPSVQVFSRSESTQPLLDSEERPEDLQLVDHVDGGDGILPRQQYFKQNCSQHESSPDISHFERSKQVSSVNEEDFVRLKQQISDHISQSCGSGQMKMFQEVSAADAFGPGTEGQVERFETVGMEAATDEGMPKSYLPQTVRQGGYMPQGGSELSTSLYKKAGYLPQTVRQGGYMPQ
notes: also called pMG2C-ERN1cyt; gp130 fusion containing only the cytoplasmic portion of ERN1
Take B4: the binding result in the assay with ERN1-Tyk2(C)-HA is given as “no binding”.
